In the supplement of paper PMC9112550, “Optimization of the antimicrobial peptide Bac7 by deep mutational scanning” (BMC Biology, 2022):

system: Escherichia coli TOP10; assay: shrunken log2 fold change of peptide-encoding DNA abundance (4.5 h post-induction vs induction); higher = less antimicrobial activity (less host growth inhibition); conditions: time post-induction: 4.5 h; library: site-saturation at positions 5, 18, 19, 20
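Further: peptides expressed intracellularly from a pBAD plasmid library in pooled LB shake-flask culture, induced with 0.3% L-arabinose, DNA abundance read by NGS, three biological replicates, DESeq2 with apeglm shrinkage.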

Sequence	shrunken log2 fold change
RRIRFRPPRLPRPRPRPTQLPRP	0.364
RRIRFRPPRLPRPRPRPGDPPRP	0.566
RRIRDRPPRLPRPRPRPWKMPRP	0.0664
RRIRIRPPRLPRPRPRPLFYPRP	-0.633
RRIRIRPPRLPRPRPRPHRSPRP	0.0394
RRIRARPPRLPRPRPRPPWPPRP	0.738
RRIRLRPPRLPRPRPRPTFKPRP	-0.0433
RRIRIRPPRLPRPRPRPCYYPRP	-0.272
RRIRSRPPRLPRPRPRPSFYPRP	-0.684
RRIRKRPPRLPRPRPRPYKEPRP	-0.417
RRIRYRPPRLPRPRPRPAVWPRP	0.11
RRIRWRPPRLPRPRPRPICTPRP	0.537
RRIRHRPPRLPRPRPRPDPAPRP	0.189
RRIRFRPPRLPRPRPRPNVFPRP	-0.108
RRIRPRPPRLPRPRPRPKMDPRP	0.0116
RRIRPRPPRLPRPRPRPNSYPRP	-0.464
RRIRKRPPRLPRPRPRPPFFPRP	0.476
RRIRQRPPRLPRPRPRPRVQPRP	0.527
RRIRRRPPRLPRPRPRPRIFPRP	0.0808
RRIRTRPPRLPRPRPRPYPCPRP	-0.245
RRIRYRPPRLPRPRPRPRLKPRP	3.7
RRIRHRPPRLPRPRPRPVLTPRP	-0.107
RRIRMRPPRLPRPRPRPEQGPRP	0.493
RRIRPRPPRLPRPRPRPARSPRP	0.315
RRIRNRPPRLPRPRPRPIACPRP	-0.00434

Sequence	shrunken log2 fold change
RRIRIRPPRLPRPRPRPMAKPRP	-0.00776
RRIRQRPPRLPRPRPRPERVPRP	0.0836
RRIRCRPPRLPRPRPRPPVIPRP	-0.0627
RRIRTRPPRLPRPRPRPQSSPRP	-0.08
RRIRMRPPRLPRPRPRPLDFPRP	-0.129
RRIRDRPPRLPRPRPRPLQWPRP	0.219
RRIRNRPPRLPRPRPRPNHSPRP	-0.525
RRIRGRPPRLPRPRPRPVMQPRP	0.775
RRIRQRPPRLPRPRPRPVHNPRP	-0.121
RRIRKRPPRLPRPRPRPQWTPRP	0.0894
RRIRERPPRLPRPRPRPQEQPRP	-0.0202
RRIRARPPRLPRPRPRPCIQPRP	0.151
RRIRMRPPRLPRPRPRPHSMPRP	-0.0253
RRIRKRPPRLPRPRPRPPLDPRP	0.809
RRIRSRPPRLPRPRPRPCKCPRP	-0.359
RRIRGRPPRLPRPRPRPGRFPRP	0.45
RRIRDRPPRLPRPRPRPYDYPRP	-0.097
RRIRRRPPRLPRPRPRPVKNPRP	0.148
RRIRPRPPRLPRPRPRPSHNPRP	-0.645
RRIRPRPPRLPRPRPRPCFWPRP	0.179
RRIRYRPPRLPRPRPRPGHGPRP	-0.111
RRIRQRPPRLPRPRPRPRIVPRP	0.01
RRIRRRPPRLPRPRPRPNMCPRP	-0.368
RRIRSRPPRLPRPRPRPIVPPRP	-0.0492
RRIRERPPRLPRPRPRPPAFPRP	0.331

Sequence	shrunken log2 fold change
RRIRHRPPRLPRPRPRPCKPPRP	-0.314
RRIRDRPPRLPRPRPRPEVKPRP	-0.0257
RRIRWRPPRLPRPRPRPFLWPRP	0.0802
RRIRHRPPRLPRPRPRPVAHPRP	-0.00816
RRIRVRPPRLPRPRPRPMYSPRP	-0.242
RRIRFRPPRLPRPRPRPGYQPRP	-0.0555
RRIRLRPPRLPRPRPRPMQPPRP	0.303
RRIRMRPPRLPRPRPRPSTPPRP	0.0303
RRIRKRPPRLPRPRPRPQMLPRP	-0.167
RRIRWRPPRLPRPRPRPVDFPRP	0.0271
RRIRQRPPRLPRPRPRPIRPPRP	0.0227
RRIRKRPPRLPRPRPRPMSAPRP	0.0584
RRIRARPPRLPRPRPRPDARPRP	0.355
RRIRQRPPRLPRPRPRPRVIPRP	0.113
RRIRRRPPRLPRPRPRPFQHPRP	-0.248
RRIRTRPPRLPRPRPRPCFRPRP	-0.0887
RRIRGRPPRLPRPRPRPFRWPRP	0.053
RRIRPRPPRLPRPRPRPLAGPRP	0.3
RRIRERPPRLPRPRPRPIDFPRP	0.136
RRIRARPPRLPRPRPRPRSIPRP	-0.0101
RRIRYRPPRLPRPRPRPPPPPRP	1.2
RRIRGRPPRLPRPRPRPIQDPRP	0.391
RRIRIRPPRLPRPRPRPPWFPRP	-0.136
RRIRDRPPRLPRPRPRPFAYPRP	-0.101
RRIRWRPPRLPRPRPRPWMMPRP	0.119

Sequence	shrunken log2 fold change
RRIRKRPPRLPRPRPRPRFMPRP	0.102
RRIRWRPPRLPRPRPRPVKNPRP	0.238
RRIRLRPPRLPRPRPRPSAIPRP	-0.189
RRIRHRPPRLPRPRPRPDEAPRP	-0.0728
RRIRARPPRLPRPRPRPSDNPRP	-0.183
RRIRMRPPRLPRPRPRPNKRPRP	0.261
RRIRGRPPRLPRPRPRPDWYPRP	0.134
RRIRWRPPRLPRPRPRPGCYPRP	-0.0343
RRIRIRPPRLPRPRPRPGKNPRP	-0.597
RRIRPRPPRLPRPRPRPVTFPRP	-0.186
RRIRTRPPRLPRPRPRPYMIPRP	-0.478
RRIRKRPPRLPRPRPRPTTHPRP	0.495
RRIRMRPPRLPRPRPRPLHDPRP	0.487
RRIRARPPRLPRPRPRPRRWPRP	0.739
RRIRIRPPRLPRPRPRPDAAPRP	0.432
RRIRERPPRLPRPRPRPCGPPRP	-0.131
RRIRRRPPRLPRPRPRPFDKPRP	0.0721
RRIRYRPPRLPRPRPRPWCMPRP	-0.383
RRIRERPPRLPRPRPRPPALPRP	0.114
RRIRNRPPRLPRPRPRPIHIPRP	-0.58
RRIRSRPPRLPRPRPRPNKMPRP	-0.05
RRIRQRPPRLPRPRPRPGKIPRP	-0.0789
RRIRERPPRLPRPRPRPEDSPRP	0.00699
RRIRVRPPRLPRPRPRPKLFPRP	0.0793
RRIRGRPPRLPRPRPRPECMPRP	1.49

Sequence	shrunken log2 fold change
RRIRNRPPRLPRPRPRPSQWPRP	-0.194
RRIRMRPPRLPRPRPRPANLPRP	0.013
RRIRARPPRLPRPRPRPWAEPRP	0.264
RRIRKRPPRLPRPRPRPGNKPRP	-0.0985
RRIRSRPPRLPRPRPRPGRLPRP	0.00392
RRIRDRPPRLPRPRPRPQNHPRP	-0.34
RRIRKRPPRLPRPRPRPMAHPRP	-0.000911
RRIRIRPPRLPRPRPRPPSYPRP	-0.336
RRIRSRPPRLPRPRPRPGKMPRP	-0.0839
RRIRLRPPRLPRPRPRPERFPRP	0.219
RRIRCRPPRLPRPRPRPWRGPRP	0.185
RRIRFRPPRLPRPRPRPCNFPRP	-0.183
RRIRGRPPRLPRPRPRPFQFPRP	0.00963
RRIRTRPPRLPRPRPRPPWMPRP	-0.00314
RRIRIRPPRLPRPRPRPSRFPRP	-0.278
RRIRARPPRLPRPRPRPVTDPRP	-0.0398
RRIRVRPPRLPRPRPRPHIPPRP	-0.602
RRIRTRPPRLPRPRPRPYGHPRP	-0.587
RRIRIRPPRLPRPRPRPGFMPRP	-0.487
RRIRPRPPRLPRPRPRPRPMPRP	0.513
RRIRQRPPRLPRPRPRPYDSPRP	-0.00804
RRIRFRPPRLPRPRPRPWQLPRP	-0.234
RRIRRRPPRLPRPRPRPNIMPRP	-0.359
RRIRVRPPRLPRPRPRPVTKPRP	0.261
RRIRRRPPRLPRPRPRPMKDPRP	0.19
